Changes are numbered by the printed parent chain. Names may count otherwise.
B1: pHL-FLAG-CDHR3-His EC1-3 (1-345), HeLa-expressed (receptor)
chain: DYKDDDDKLHLILLPATGNVAENSPPGTSVHKFSVKLSASLSPVIPGFPQIVNSNPLTEAFRVNWLSGTYFEVVTTGMEQLDFETGPNIFDLQIYVKDEVGVTDLQVLTVQVTDVNEPPQFQGNLAEGLHLYIVERANPGFIYQVEAFDPEDTSRNIPLSYFLISPPKSFRMSANGTLFSTTELDFEAGHRSFHLIVEVRDSGGLKASTELQVNIVNLNDEVPRFTSPTRVYTVLEELSPGTIVANITAEDPDDEGFPSHLLYSITTVSKYFMINQLTGTIQVAQRIDRDAGELRQNPTISLEVLVKDRPYGGQENRIQITFIVEDVNDNPATCHHHHHH
B2: full-length FLAG-CDHR3 Y529 N186Q (receptor)
chain: DYKDDDDKLHLILLPATGNVAENSPPGTSVHKFSVKLSASLSPVIPGFPQIVNSNPLTEAFRVNWLSGTYFEVVTTGMEQLDFETGPNIFDLQIYVKDEVGVTDLQVLTVQVTDVNEPPQFQGNLAEGLHLYIVERANPGFIYQVEAFDPEDTSRNIPLSYFLISPPKSFRMSAQGTLFSTTELDFEAGHRSFHLIVEVRDSGGLKASTELQVNIVNLNDEVPRFTSPTRVYTVLEELSPGTIVANITAEDPDDEGFPSHLLYSITTVSKYFMINQLTGTIQVAQRIDRDAGELRQNPTISLEVLVKDRPYGGQENRIQITFIVEDVNDNPATCQKFTFSIMVPERTAKGTLLLDLNKFCFDDDSEAPNNRFNFTMPSGVGSGSRFLQDPAGSGKIVLIGDLDYENPSNLAAGNKYTVIIQVQDVAPPYYKNNVYVYILTSPENEFPLIFDRPSYVFDVSERRPARTRVGQVRATDKDLPQSSLLYSISTGGASLQYPNVFWINPKTGELQLVTKVDYETTPIYILRIQATNNEDTSSVTVTVNILEENDEKPICTPNSYFLALPVDLKVGTNIQNFKLTCTDLDSSPRSFRYSIGPGNVNNHFTFSPNAGSNVTRLLLTSRFDYAGGFDKIWDYKLLVYVTDDNLMSDRKKAEALVETGTVTLSIKVIPHPTTIITTTPRPRVTYQVLRKNVYSPSAWYVPFVITLGSILLLGLLVYLVVLLAKAIHRHCPCKTGKNKEPLTKKGETKTAERDVVVETIQMNTIFDGEAIDPVTGETYEFNSKTGARKWKDPLTQMPKWKESSHQGAAPRRVTAGEGMGSLRSANWEEDELSGKAWAEDAGLGSRNEGGKLGNPKNRNPAFMNRAYPKPHPGK
B3: full-length FLAG-CDHR3 Y529 W76A (receptor)
chain: B2 chain with W65A, Q175N
B4: full-length FLAG-CDHR3 Y529 K43A (receptor)
chain: B2 chain with K32A, Q175N
B5: full-length FLAG-CDHR3 Y529 R166A (receptor)
chain: B2 chain with R155A, Q175N
B6: full-length FLAG-CDHR3 Y529 N186A (receptor)
chain: B2 chain with Q175A
B7: rEC1-3 K43A (CDHR3 residues 20-345 with K43A and C345A), bacterially produced and refolded (receptor)
chain: MASDYKDDDDKLHLILLPATGNVAENSPPGTSVHAFSVKLSASLSPVIPGFPQIVNSNPLTEAFRVNWLSGTYFEVVTTGMEQLDFETGPNIFDLQIYVKDEVGVTDLQVLTVQVTDVNEPPQFQGNLAEGLHLYIVERANPGFIYQVEAFDPEDTSRNIPLSYFLISPPKSFRMSANGTLFSTTELDFEAGHRSFHLIVEVRDSGGLKASTELQVNIVNLNDEVPRFTSPTRVYTVLEELSPGTIVANITAEDPDDEGFPSHLLYSITTVSKYFMINQLTGTIQVAQRIDRDAGELRQNPTISLEVLVKDRPYGGQENRIQITFIVEDVNDNPATAGTKHHHHHH
B8: rEC1-3 N186A (CDHR3 residues 20-345 with N186A and C345A), bacterially produced and refolded (receptor)
chain: B7 chain with A35K, N178A

What was measured:
[1] = target: rhinovirus C15 virus (recombinant RV-C isolate C15, sucrose purified) (rhinovirus C15); assay: IP (α-His mAb) of refolded bacterial protein (100 pmol) with C15 virus (10^7 PFUe), Western blot
[2] = target: rhinovirus C15 virus (recombinant RV-C isolate C15, sucrose purified) (rhinovirus C15); assay: HeLa-expressed protein recovered by α-His IP, denatured and refolded, reacted with C15 virus, α-His IP, Western blot
[3] = target: rhinovirus C15 virus (recombinant RV-C isolate C15, sucrose purified) (rhinovirus C15); assay: IP (α-CDHR3 mAb) of transfected HeLa cell lysate reacted with C15 virus, Western blot
[4] = target: rhinovirus C15 virus (recombinant RV-C isolate C15, sucrose purified) (rhinovirus C15); assay: IP of CDHR3 with C15 virus, Western blot; multiple experiments and CDHR3 contexts
[5] = target: rhinovirus C15 virus (recombinant RV-C isolate C15, sucrose purified) (rhinovirus C15); assay: IP (α-His mAb) of refolded bacterial protein (100 pmol) with C15 virus (10^7 PFUe), Western blot; remark: listed apart in the source

| Molecule | virus-binding efficiency (Binding % relative to positive control) [1] | Binding % (C15 signal normalized to CDHR3 signal, relative to WT) [3] | other results |
| --- | --- | --- | --- |
| rEC1 (FLAG-CDHR3 EC1-His, CDHR3 residues 20-130), bacterially produced and refolded (receptor) | 100% | – | – |
| rEC1-2 (FLAG-CDHR3 EC1-2-His, CDHR3 residues 20-237), bacterially produced and refolded (from UniProt Q6ZTQ4 20-237) (receptor) | 87% | – | – |
| rEC1-3 (FLAG-CDHR3 EC1-3-His, CDHR3 residues 20-345 with C345A), bacterially produced and refolded (from UniProt Q6ZTQ4 20-344) (receptor) | 61% | – | – |
| rEC1+3(Δ2) (FLAG-CDHR3 EC1+3(Δ2), residues 20-345 Δ129-231 with C345A), bacterially produced and refolded (from UniProt Q6ZTQ4 20-344) (receptor) | 68% | – | – |
| B1 | – | – | Binding % after refolding, relative to the same protein not refolded [2]: 213% |
| B2 | – | 19% | – |
| B3 | – | – | more virus pull-down than comparable WT sequences (% more than WT) [4]: 50 to 80 |
| B4 | – | 46% | – |
| B5 | – | 16% | – |
| B6 | – | 11% | – |
| B7 | – | – | Binding % (C15 signal normalized to recombinant protein signal, relative to WT rEC1-3) [5]: 22% |
| B8 | – | – | Binding % (C15 signal normalized to recombinant protein signal, relative to WT rEC1-3) [5]: 85 % of WT |

Reference: patent publication US20210214413A1
